According to PMC4721544:

Target: EGFP-EVH2(Mena) (mouse)
Assay: cross-linking; lysates of MV^D7 cells stably expressing EGFP-EVH2 (Mena); 100 mM EDC and 10 mM NHS-ester, 1 h, room temperature; 50 mM MES pH 6.0, 500 mM NaCl; SDS/6% PAGE and anti-GFP western blot

stoichiometry N: 4
Substance: EGFP-EVH2(Mena) (domain or fragment)
